# Data: PMC7373347 (Current protocols in cell biology, 2020)
# Like-named read-outs stand apart in the source and are kept apart here.
# B1: human DHHC15 (Palmitoyl Acyl Transferase, hDHHC15) fused to mVenus (enzyme, UniProt Q96MV8 1-337, looked up)
# chain: MRRGWKMALSGGLRCCRRVLSWVPVLVIVLVVLWSYYAYVFELCLVTVLSPAEKVIYLILYHAIFVFFTWTYWKSIFTLPQQPNQKFHLSYTDKERYENEERPEVQKQMLVDMAKKLPVYTRTGSGAVRFCDRCHLIKPDRCHHCSVCAMCVLKMDHHCPWVNNCIGFSNYKFFLQFLAYSVLYCLYIATTVFSYFIKYWRGELPSVRSKFHVLFLLFVACMFFVSLVILFGYHCWLVSRNKTTLEAFCTPVFTSGPEKNGFNLGFIKNIQQVFGDKKKFWLIPIGSSPGDGHSFPMRSMNESQNPLLANEETWEDNEDDNQDYPEGSSSLAVETET
# B2: human DHHC15 (Palmitoyl Acyl Transferase, hDHHC15), purified, tag cleaved (enzyme, UniProt Q96MV8 1-337, looked up)
# chain: B1 chain
# Columns and labels:
# SEC [1] = molecular target: the molecule itself; assay: SEC
# SEC [2] = molecular target: the molecule itself; assay: SEC; remark: listed apart in the source
protein,measurement,setting,value
B1,stoichiometry N,SEC [1],2
B2,stoichiometry N,SEC [2],2
